Reference: PMC6609622, “Poly(ADP-ribose) polymerase-1 antagonizes DNA resection at double-strand breaks”

Biological target: PARP-1 (human, UniProt P09874 1-1014)
Experiment: EMSA; 5 and 30 uM NAD+; remains bound; EMSA: 20 mM Na-HEPES pH 7.5, 0.1 mM DTT, 0.05% Triton X-100, 100 ug/mL BSA, 5 mM MgCl2, 2 mM ATP, 100 nM DNA, 37 C 10 min, then 0.2% glutaraldehyde 15 min; DNA
Conditions: protein: recombinant; label: 32P; blunt

Chain of PARP-1 (P09874 whole entry): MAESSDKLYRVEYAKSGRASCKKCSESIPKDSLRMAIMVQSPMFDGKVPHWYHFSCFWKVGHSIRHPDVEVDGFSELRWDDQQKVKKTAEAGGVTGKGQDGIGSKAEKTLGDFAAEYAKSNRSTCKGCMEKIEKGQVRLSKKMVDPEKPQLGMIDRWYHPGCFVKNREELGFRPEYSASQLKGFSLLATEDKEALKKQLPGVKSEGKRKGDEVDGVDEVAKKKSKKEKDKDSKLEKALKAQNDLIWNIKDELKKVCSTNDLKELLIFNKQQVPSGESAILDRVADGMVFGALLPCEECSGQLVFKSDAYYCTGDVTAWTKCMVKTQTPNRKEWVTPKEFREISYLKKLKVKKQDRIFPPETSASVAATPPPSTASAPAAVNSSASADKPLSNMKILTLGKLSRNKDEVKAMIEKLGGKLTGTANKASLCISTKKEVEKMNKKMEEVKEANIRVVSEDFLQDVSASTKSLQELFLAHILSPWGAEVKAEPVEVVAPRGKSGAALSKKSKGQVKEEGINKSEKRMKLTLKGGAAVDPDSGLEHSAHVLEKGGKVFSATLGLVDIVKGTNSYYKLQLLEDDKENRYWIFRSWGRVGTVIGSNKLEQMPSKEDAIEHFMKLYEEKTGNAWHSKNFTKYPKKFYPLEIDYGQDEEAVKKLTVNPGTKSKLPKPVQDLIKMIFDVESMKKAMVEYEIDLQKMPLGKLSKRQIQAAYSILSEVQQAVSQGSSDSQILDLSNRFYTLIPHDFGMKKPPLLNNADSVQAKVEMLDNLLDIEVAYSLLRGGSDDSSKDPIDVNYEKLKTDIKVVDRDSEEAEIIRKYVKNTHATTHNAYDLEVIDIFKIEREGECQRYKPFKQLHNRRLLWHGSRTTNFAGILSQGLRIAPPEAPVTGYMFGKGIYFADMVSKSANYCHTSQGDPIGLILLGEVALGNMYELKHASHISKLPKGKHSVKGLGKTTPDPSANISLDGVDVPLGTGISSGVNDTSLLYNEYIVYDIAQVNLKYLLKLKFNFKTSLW

B1: JYM696/JYM698 (dsDNA)
DNA 1: GGGCGAATTGGGCCCGACGTCGCATGCTCCTCTAGACTCGAGGAATTCGGTACCCCGGGTTCGAAATCGATAAGCTTACAGTCTCCATTTAAAGGACAAG
DNA 2: CTTGTCCTTTAAATGGAGACTGTAAGCTTATCGATTTCGAACCCGGGGTACCGAATTCCTCGAGTCTAGAGGAGCATGCGACGTCGGGCCCAATTCGCCC
B1: binds.
